# Measured values taken from the supplement of paper PMC10899765.
# How the values were obtained:
# Conditions in all cases: 20 nM; 72 h
# MCF10A [1] = assay: percent viability (nuclei count relative to siNT); higher = more viable cells
# Description: (§1)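 After 72 h, cells were fixed and stained with Hoechst and anti-fibrillarin, and nucleoli per nucleus were counted with CellProfiler. Values are plate-adjusted percent effect for the one-nucleolus and 5+ nucleoli phenotypes, normalised to siNT (0%) and to the positive controls siNOL11 or siKIF11 (100%), as the mean of biological triplicates. Percent viability is the nuclei count relative to siNT.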
# MCF10A [2] = assay: one-nucleolus phenotype percent effect (relative to siNT 0% and siNOL11 100%); higher = more cells with one nucleolus (ribosome biogenesis inhibition)
# Description: as §1
# MCF10A [3] = assay: 5+ nucleoli phenotype percent effect (relative to siNT 0% and siKIF11 100%); higher = more cells with five or more nucleoli
# Description: as §1
Sequence,percent viability (MCF10A [1]),one-nucleolus phenotype percent effect (MCF10A [2]),5+ nucleoli phenotype percent effect (MCF10A [3])
AGGUUGACAUACGUUUCCC [hsa-miR-563],70.5%,-18%,46.2%
UCCCUCUCCCACCCCUUGCAG [hsa-miR-6892-3p],52.2%,-29%,42.4%
GAAGAUGGUGCUGUGCUGAGGAA [hsa-miR-4647],60.7%,22.7%,-5.89%
CGGCGCCCGUGUCUCCUCCAG [hsa-miR-6789-3p],59.9%,-9.93%,32.6%
UUCCCUUUGUCAUCCUAUGCCU [hsa-miR-204-5p],100%,-10.4%,46%
GAAAGAGAGCUGAGUGUG [hsa-miR-4311],26.3%,31.2%,-27.3%
CGAAAACAGCAAUUACCUUUGC [hsa-miR-570-3p],164%,-22.6%,34.2%
UGAUCUCACCGCUGCCUCCUUC [hsa-miR-4695-3p],93.9%,-9.6%,12.8%
AUAUACCUGUUCGGUCUCUUUA [hsa-miR-3144-3p],30%,-10.5%,-12.6%
UCCGAGCCUGGGUCUCCCUCUU [hsa-miR-615-3p],74.9%,-6.23%,-0.788%
GCUACUUCACAACACCAGGGCC [hsa-miR-138-1-3p],112%,-15.7%,30.5%
CACCAGGCAUUGUGGUCUCC [hsa-miR-1911-3p],45%,26.3%,-9.8%
CGCCGCGCGCAUCGGCUCAGC [hsa-miR-6869-3p],28.8%,4.08%,-29.2%
UGUCUCUCGCCCUUGGCCUUAG [hsa-miR-6895-3p],19.4%,34.7%,-32.5%
AAGUGAUCUAAAGGCCUACAU [hsa-miR-1245a],48.6%,10.4%,-34%
AGCUACAGUUACUUUUGCACCA [hsa-miR-548v],68.4%,-5.59%,-8.87%
GCCCCGGCGCGGGCGGGUUCUGG [hsa-miR-4707-5p],116%,-25%,42.2%
GAGAGCAGUGUGUGUUGCCUGG [hsa-miR-2278],30.7%,40.5%,-44.7%

Sequence,percent viability (MCF10A [1]),one-nucleolus phenotype percent effect (MCF10A [2]),5+ nucleoli phenotype percent effect (MCF10A [3])
ACUGGACUUAGGGUCAGAAGGC [hsa-miR-422a],37.8%,12.5%,-13.7%
UAGUAGACCGUAUAGCGUACG [hsa-miR-411-5p],69.2%,-6.18%,15.2%
UCGGGGAGUCUGGGGUCCGGAAU [hsa-miR-6889-5p],30.7%,6.17%,3.52%
CUGGGAUCUCCGGGGUCUUGGUU [hsa-miR-769-3p],40.7%,18%,-14.5%
CAGCAGCACACUGUGGUUUGU [hsa-miR-497-5p],15.2%,50.2%,-38.4%
UAUGUGCCUUUGGACUACAUCG [hsa-miR-455-5p],44.7%,-2.17%,-19.3%
ACUGUCACUUCUCUGCCCAUAG [hsa-miR-6773-3p],47.1%,13.5%,-17.8%
AGCGCGGGCUGAGCGCUGCCAGUC [hsa-miR-2277-5p],31.3%,25.5%,-22.4%
GUGGACCUGGCUGGGAC [hsa-miR-4535],65.5%,-11%,17.4%
GAGGGUUGGGUGGAGGCUCUCC [hsa-miR-296-3p],57.1%,20.8%,9.3%
AAAGUGCAUCCUUUUAGAGUGU [hsa-miR-519a-3p],160%,-15.2%,44.1%
GGCAGGUUCUCACCCUCUCUAGG [hsa-miR-657],44.7%,4.3%,15.8%
CCGGCAUGUCCAGGGCA [hsa-miR-4304],25.4%,14.3%,3.17%
AAAAGUAAUUGCAGUUUUUGC [hsa-miR-548ar-5p],134%,-24.8%,22.8%
UCAUCCUCGUCUCCCUCCCAG [hsa-miR-5196-3p],44.3%,-13.1%,-6.21%
AGCAGUGUUUGUUUUGCCCACA [hsa-miR-6499-3p],30.3%,16.7%,-48%
CGCUCUAGGCACCGCAGCA [hsa-miR-1301-5p],77.5%,-24.1%,95.7%
GAGUGUAGUUCUGAGCAGAGC [hsa-miR-4280],29.9%,18.3%,-17.9%
